# Reference: patent US20080262203A1 (published 2008)
# “And” between values parts separate entries of the source, which are not always exact repeats. Equal values may be shown once.
# Assays:
# [1] = molecular target: T1, human ENA-78 (human, UniProt P42830 37-114, limits assumed); experiment: Biacore SPR, KL: anti-mouse Fc capture
# T1 construct: also called hENA-78; CXCL5
# Experimental: (§1) Supernatant or purified antibody from parental mouse mAb is captured on the anti-mouse IgG-Fc surface. Defined concentrations of each analyte (IL8, Gro-band ENA-78) are passed over the immobilized or captured antibody surface, a separate capture event is used for each analyte injection. After each injection of analyte the surface is regenerated by injection
# (§2) An injection of buffer is also injected over the antibody captured surface and this is used for double referencing. The data is analyzed using the analysis software inherent to the machine, using the 1:1 model of binding.
# [2] = molecular target: T2, human Gro-beta (human, UniProt P19875 35-107); experiment: Biacore SPR, KL: anti-mouse Fc capture
# T2 construct: also called Gro-β; hGROβ
# Experimental: as §1, §2
# [3] = molecular target: T3, human IL-8 (human, UniProt P10145 28-99, limits assumed); experiment: Biacore SPR, KL: anti-mouse Fc capture
# T3 construct: also called hIL-8; hIL8
# Experimental: as §1, §2
# [4] = molecular target: T1, human ENA-78; experiment: Biacore SPR, BE: mAb amine-coupled;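 further: analytes IL-8, Gro-b and ENA-78 flowed at defined concentrations over the antibody surface, buffer injection used for double referencing, kinetics fitted to a 1:1 binding model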
# Experimental: (§3) For experiment designated BE, purified antibodies directly immobilized to the chip by amine coupling was used.
# (§4) Defined concentrations of each analyte (IL8, Gro-band ENA-78) are passed over the immobilized or captured antibody surface, a separate capture event is used for each analyte injection. After each injection of analyte the surface is regenerated by injection
# as §2
# [5] = molecular target: T2, human Gro-beta; experiment: Biacore SPR, BE: mAb amine-coupled;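 further: analytes IL-8, Gro-b and ENA-78 flowed at defined concentrations over the antibody surface, buffer injection used for double referencing, kinetics fitted to a 1:1 binding model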
# Experimental: as §3, §4, §2
# [6] = molecular target: T3, human IL-8; experiment: Biacore SPR, BE: mAb amine-coupled;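 further: analytes IL-8, Gro-b and ENA-78 flowed at defined concentrations over the antibody surface, buffer injection used for double referencing, kinetics fitted to a 1:1 binding model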
# Experimental: as §3, §4, §2
# [7] = molecular target: T4, human GCP-2 (human, UniProt P80162 38-114, limits assumed); experiment: TRFIA, chemokine coated on plate, europium anti-human IgG detection; antibody concentration not given
# T4 construct: also called hGCP-2; CXCL6
# [8] = molecular target: T5, human Gro-gamma (human, UniProt P19876 35-107); experiment: as above
# T5 construct: also called Gro-γ; CXCL3
# Experimental: (§5) Briefly, each antigen (human IL-8, Gro-alpha, Gro-beta, Gro-gamma, GCP-2, and ENA-78, and hIL-18 when used as negative control) is individually coated onto a 96-well immunofluorescent plate. The plates are then washed and blocked with a commercially available blocking solution. Blocking solution is emptied and samples containing the mAb are added into each well and incubated for 40 to 60 minutes (this allows the mAb to bind to the target chemokines). The plates are then washed again and a detection Ab is added to each well. […] The detection antibody is conjugated to either europium or biotin. Following another round of washing, to remove unbound detection Ab, a solution of streptavidin-europium was added to biotin detected assays. Streptavidin-europium binds to the biotin allowing for detection. After a final wash to remove unbound streptavidin-europium, or in the case of the humanized MAb assay after the europium conjugate secondary is washed, each well is filled with a chelating detergent solution to activate the europium producing fluorescence. The greater the fluorescence recorded is directly proportionate to the amount of detection Ab present in the well which is directly linked and proportionate to the amount of the chemokine binding mAb.
# [9] = molecular target: T6, human Gro-alpha (human, UniProt P09341 35-107); experiment: as above
# T6 construct: also called Gro-α; hGROα
# Experimental: as §5
# [10] = molecular target: T1, human ENA-78; experiment: Biacore SPR, Protein A capture;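 further: purified antibody captured on Protein A immobilised on a CM5 chip, chemokine analytes flowed over at defined concentrations, buffer injection for double referencing, kinetics fitted with a 1:1 binding model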
# Text: (§6) A Protein A capture method was used to generate kinetics for the humanised and chimeric constructs as follows:
# (§7) Protein A is immobilised on a CM5 chip by primary amine coupling in accordance with the manufactures instructions. Purified humanised or chimeric antibody is captured on the Protein A surface. After capture defined concentrations of each analyte (IL8, Gro-β and ENA-78) are passed over the antibody captured surface, a separate capture event is used for each analyte injection. […] An injection of buffer is also injected over the antibody captured surface and this is used for double referencing. The data is analysed using the analysis software inherent to the machine, using the 1:1 model of binding.
# [11] = molecular target: T3, human IL-8; experiment: Biacore SPR, Protein A capture;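 further: purified antibody captured on Protein A immobilised on a CM5 chip, chemokine analytes flowed over at defined concentrations, buffer injection for double referencing, kinetics fitted with a 1:1 binding model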
# Text: as §6, §7
# [12] = molecular target: T2, human Gro-beta; experiment: Biacore SPR, BE: mAb amine-coupled; BE: mAb amine-coupled;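 on Kd: analytes IL-8, Gro-b and ENA-78 flowed at defined concentrations over the antibody surface, buffer injection used for double referencing, kinetics fitted to a 1:1 binding model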
# Experimental: as §3, §4, §2
# [13] = molecular target: T2, human Gro-beta; experiment: Biacore SPR, KL: anti-mouse Fc capture; KL: anti-mouse Fc capture
# Experimental: as §1, §2
# [14] = molecular target: T1, human ENA-78; experiment: TRFIA, chemokine coated on plate, biotinylated anti-mouse IgG and streptavidin-europium detection
# Experimental: as §5
# [15] = molecular target: T5, human Gro-gamma; experiment: as above
# Experimental: as §5
# [16] = molecular target: T2, human Gro-beta; experiment: as above
# Experimental: as §5
# [17] = molecular target: T6, human Gro-alpha; experiment: as above
# Experimental: as §5
# [18] = molecular target: T3, human IL-8; experiment: as above
# Experimental: as §5
# [19] = molecular target: T7, hIL-18 (Homo sapiens, UniProt Q14116); experiment: TRFIA, hIL-18 coated on plate, biotinylated anti-human IgG Fab2 reagent and streptavidin-europium detection
# T7 construct: Printed on the sheets: 'hIL-18 run as a negative control'; also called human IL-18
# Experimental: as §5
# [20] = molecular target: T1, human ENA-78; experiment: TRFIA, chemokine coated on plate, biotinylated anti-human IgG Fab2 reagent and streptavidin-europium detection
# Experimental: as §5
# [21] = molecular target: T4, human GCP-2; experiment: as above
# Experimental: as §5
# [22] = molecular target: T5, human Gro-gamma; experiment: as above
# Experimental: as §5
# [23] = molecular target: T2, human Gro-beta; experiment: as above
# Experimental: as §5
# [24] = molecular target: T6, human Gro-alpha; experiment: as above
# Experimental: as §5
# [25] = molecular target: T3, human IL-8; experiment: as above
# Experimental: as §5
Binder,Kd [1] [nM],koff [1] [s⁻¹],kon [1] [M⁻¹ s⁻¹],Kd [3] [nM],koff [3] [s⁻¹],kon [3] [M⁻¹ s⁻¹],Kd [4] [nM],koff [4] [s⁻¹],kon [4] [M⁻¹ s⁻¹],Kd [5] [nM],kon [5] [M⁻¹ s⁻¹],Kd [6] [nM],koff [6] [s⁻¹],kon [6] [M⁻¹ s⁻¹],binding result [7],binding result [8],binding result [9],further results
"humanized penta-specific antibody construct H0L7 (antibody, human IgG1, kappa, V domains shown, H0 mature heavy chain with L7 mature light chain) VH: QVQLVQSGAEVKKPGASVKVSCKASGYTFTNYWIVWVRQAPGQGLEWMGDLYSGGGYTFYSENFKGRVTMTRDTSTSTVYMELSSLRSEDTAVYYCARSGYDRTWFAHWGQGTLVTVSS VL: DIQMTQSPSSLSASVGDRVTITCQASQDIESYLSWYQQKPGKAPKLLIYYATRLADGVPSRFSGSGSGTDFTLTISSLQPEDFATYYCLQHGESPPTFGQGTKLEIKR",,,,,,,,,,,,,,,binds,binds,binds,
"humanized penta-specific antibody construct H0L10 (antibody, human IgG1, kappa, V domains shown, H0 mature heavy chain with L10 mature light chain) VH: QVQLVQSGAEVKKPGASVKVSCKASGYTFTNYWIVWVRQAPGQGLEWMGDLYSGGGYTFYSENFKGRVTMTRDTSTSTVYMELSSLRSEDTAVYYCARSGYDRTWFAHWGQGTLVTVSS VL: DIQMTQSPSSLSASVGDRVTITCQASQDIESYLSWYQQKPGKAPKLLIYYATRLADGVPSRFSGSGSGQDYTLTISSLQPEDFATYYCLQHGESPPTFGQGTKLEIKR",,,,,,,,,,,,,,,binds,binds,binds,Kd [10]: 0.0899 nM and 0.0722 nM and 0.0742 nM and 0.0613 nM
"humanized penta-specific antibody construct H0L8 (antibody, human IgG1, kappa, V domains shown, H0 mature heavy chain with L8 mature light chain) VH: QVQLVQSGAEVKKPGASVKVSCKASGYTFTNYWIVWVRQAPGQGLEWMGDLYSGGGYTFYSENFKGRVTMTRDTSTSTVYMELSSLRSEDTAVYYCARSGYDRTWFAHWGQGTLVTVSS VL: DIQMTQSPSSLSASVGDRVTITCQASQDIESYLSWYQQKPGKAPKLLIYYATRLADGVPSRFSGSGSGTDFTFTISSLQPEDIATYYCLQHGESPPTFGQGTKLEIKR",,,,,,,,,,,,,,,binds,binds,binds,Kd [10]: 0.1 nM and 0.0941 nM and 0.0912 nM and 0.0755 nM; koff [10]: 0.000288 s⁻¹ and 0.000266 s⁻¹ and 0.000269 s⁻¹ and 0.000248 s⁻¹; kon [10]: 2.88e+06 M⁻¹ s⁻¹ and 2.82e+06 M⁻¹ s⁻¹ and 2.95e+06 M⁻¹ s⁻¹ and 3.29e+06 M⁻¹ s⁻¹; Kd [11]: 0.188 nM and 0.143 nM and 0.175 nM and 0.152 nM; koff [11]: 0.00111 s⁻¹ (2×) and 0.00113 s⁻¹ and 0.00119 s⁻¹; kon [11]: 5.9e+06 M⁻¹ s⁻¹ and 7.89e+06 M⁻¹ s⁻¹ and 6.8e+06 M⁻¹ s⁻¹ and 7.3e+06 M⁻¹ s⁻¹
"mouse monoclonal antibody 656.35 (antibody, IgG2a, V domains shown, Murine hybridoma mAb) VH: QVQLQQSGAELVRPGTSVTISCKASGYTFTNYWIVWVKQRPGHGLEWIGDLYSGGGYTFYSENFKGKATLTADTSSSTAYMHLISLTSEDSAVYFCARSGYDRTWFAHWGQGSLVTVSA VL: DIKMTQSPSSMSASLGERVTITCQASQDIESYLSWYQQKPWKSPKTLIYYATRLADGVPSRFSGSGSGQDYSLTISSLESDDTATYYCLQHGESPPTFGAGTKLELKR",1.74,0.00187,1.07e+06,0.964,0.00148,1.53e+06,0.271,0.000796,2.94e+06,0.111,1.32e+07,0.0839,0.000687,8.19e+06,,,,Kd [2]: 0.526 nM; koff [2]: 0.00201 s⁻¹; kon [2]: 3.82e+06 M⁻¹ s⁻¹; koff [5]: 0.00146 s⁻¹; EC50 (read off the curve) [14]: ~20 ng/mL; EC50 (read off the curve) [15]: ~20 ng/mL; EC50 (read off the curve) [16]: ~20 ng/mL; EC50 (read off the curve) [17]: ~30 ng/mL; EC50 (read off the curve) [18]: ~30 ng/mL
"Chimera Antibody (HcLc) made from 656.35 (antibody, human IgG1, kappa, V domains shown, also called the Chimera Antibody; chimera (HcLc)) VH: QVQLQQSGAELVRPGTSVTISCKASGYTFTNYWIVWVKQRPGHGLEWIGDLYSGGGYTFYSENFKGKATLTADTSSSTAYMHLISLTSEDSAVYFCARSGYDRTWFAHWGQGSLVTVSS VL: DIKMTQSPSSMSASLGERVTITCQASQDIESYLSWYQQKPWKSPKTLIYYATRLADGVPSRFSGSGSGQDYSLTISSLESDDTATYYCLQHGESPPTFGAGTKLELKR",,,,,,,,,,,,,,,,,,binding result [19]: no binding (tested: 1000 ng/ml); EC50 (read off the curve) [20]: ~40 ng/mL; EC50 (read off the curve) [21]: ~40 ng/mL; EC50 (read off the curve) [22]: ~40 ng/mL; EC50 (read off the curve) [23]: ~40 ng/mL; EC50 (read off the curve) [24]: ~50 ng/mL; EC50 (read off the curve) [25]: ~70 ng/mL

# More lines, main results first:
Kd [1] [nM],koff [1] [s⁻¹],kon [1] [M⁻¹ s⁻¹],Kd [3] [nM],koff [3] [s⁻¹],kon [3] [M⁻¹ s⁻¹],Kd [4] [nM],koff [4] [s⁻¹],kon [4] [M⁻¹ s⁻¹],Kd [5] [nM],kon [5] [M⁻¹ s⁻¹],Kd [6] [nM],koff [6] [s⁻¹],kon [6] [M⁻¹ s⁻¹],binding result [7],binding result [8],binding result [9],Binder,further results
0.616,0.000376,611000,4.8,0.00932,1.95e+06,0.0239,3.94e-06,165000,0.0898,5.44e+06,55.5,0.108,1.95e+06,,,,"mouse monoclonal antibody 81.1 (antibody, IgG2a, V domains shown, Murine hybridoma mAb) VH: EVQLQQSGPELEKPGASVKISCKASGYSFTVYGMNWVRQSNGKSLEWIGNFDPYFSVTSYNQKFQDKATLTVDKSSSTAYMQLKNLTSEDSAVYFCARGSWETIFAYWGQGTLVTVSA VL: QAVVTQESALTTSPGETVTLTCRSSTGAVTTSNYANWVQEKPDHLFTGLIGGTNNRAPGVPARFSGSLIGDKAALTITGAQTEDEAIYFCALWYSNHVFGGGTKLTVLQ",Kd [2]: 0.113 nM; koff [2]: 0.000312 s⁻¹; kon [2]: 2.76e+06 M⁻¹ s⁻¹; koff [5]: 0.000489 s⁻¹
,,,,,,,,,,,,,,binds,binds,binds,"humanized penta-specific antibody construct H0M0 (antibody, human IgG1, kappa, V domains shown, H0 mature heavy chain with M0 mature light chain) VH: QVQLVQSGAEVKKPGASVKVSCKASGYTFTNYWIVWVRQAPGQGLEWMGDLYSGGGYTFYSENFKGRVTMTRDTSTSTVYMELSSLRSEDTAVYYCARSGYDRTWFAHWGQGTLVTVSS VL: EIVLTQSPATLSLSPGERATLSCQASQDIESYLSWYQQKPGQAPRLLIYYATRLADGIPARFSGSGSGTDFTLTISSLEPEDFAVYYCLQHGESPPTFGQGTKLEIKR",
9,0.00269,299000,5.89,0.00369,627000,10.1,0.00302,301000,< 0.00962,1.04e+06,0.69,0.000499,723000,,,,"mouse monoclonal antibody 197.2 (antibody, IgG2a, V domains shown, Murine hybridoma mAb) VH: EFQLQQSGPELVKPGASVKISCKASGYSFTDYNMNWVKQSNGKSLEWIGVINPKYGTTSYNQKFKGKATLTVDQSSNTAYMQLSSLTSEDSAVYHCARGMGLLFGMDYWGQGTSVTVSS VL: DIVMTQSPSSLSVSAGEKVTMSCKSSQSLLNSGNQKNYLAWYQQKPGQPPKLLIYGASTRKSGVPDRFTGSGSGTDFTLTISSVQAEDLAVYYCQNDHSFPCTFGGGTKLEIKR",koff [12]: < 1e-05 s⁻¹; Kd [13]: 0.639 nM; koff [13]: 0.000993 s⁻¹; kon [13]: 1.55e+06 M⁻¹ s⁻¹
